The text below walks through data of a protein production outcome set (Wang et al. 2014).

The nature of the data set: label from the status in PepcDB records.
For “MVTDKSKKAKTEEENVEQIDAELVLSIEKLQEIQDDLEKINEKASDEVLEVEQKYNVIRKPVYDKRNEIIKTIPDFWLTAFLSHPALGELLTEEDQKIFKYLSSLDVEDAKDVKSGYSITFSFNPNPFFEDGKLTKTFTFLEEGTTKITATPIKWKEGKGLANGVNHEKNGNKRALPEESFFTWFSDAQHKEDVEDEMQDEVADIIKEDLWPNPLTYFNNDADEEDFDGDDDGDEEEKEGDSDEDDDEEDEVGEE”, the protein production result is on record as “failed”.

On to “MVTGYEALERHRGVRRPRRKLSRREKHAWKKAQKYELKLHKAHEKEERKLAKQAAKQAAREEKAAQKQAKKAERHKKKTKPPGSVKSSGKKGVAKKISSTNKDSRNKGKNITAQQSIPYREMGKDGICRVEDGYYSKTIRFYDINYQLAQNEDKNAIFENWCDFLNYFDSTIHFQLSFINHHSNMTEYEDVIRIKKQNDSFDDLRMEFAQMLRNQLAKGNNGLIRTKYITFGIEADNIREAKPKLERIETDILNNFKVFGVSAYPLNGAERLQIMYETFNQNVKVPFRFSYDDMLRTGLNTKDYIAPSSFLFKNGKDFQMGDTVGAVSYLQILAPELTDKMLAEFLEMDCNLLVNLHIQSIDQMKAIKLVKSKVTDINRMKIEEQKKAVRSGYDMDIIPSDLNTYGGEAKRLLEDLQSRNERMFLVTVVFLNTAKNKQELENVVFQTAGIAQKYNCALKRLDYQQEQGLMSSLPLGRNWIPIKRALTTTSTAIFVPFTTQELFMGGESIYYGLNALSNNLIMADRKKLKNPNGLILGTPGSGKSFAAKREITNVFIVTKDDIIICDPEGEYFPLVRAFNGQVIRISPTSHDYINPMDININYADDDDPLSLKSDFILSLCELVVGGKNGLEPVEKTIIDRCVRLVYQDYLADPVPEKMPILEDLYNLLRKQEEAESQRLATALEIYVNGSLKVFNHRTNVELNNRLVCFDIKDLGKQLKKLGMLIVQDQVWNRVTVNRSAHKSTRYYIDEFHLLLKEEQTAAYSVEIWKRFRKWGGIPTGITQNVKDLLASREIENIFENSDFILMLNQASGDRQILAKQLNISTHQLSYVTNSGEGEGLIFYGNTIIPFKDRFDNTLMLYALMSSKPEDVEKREKLGIKGRDDS”, for which the protein production entry is reported as “failed”.

As to “MVTKEQVVEALEGIVDPFLHKTLKETSAIKEVTVKPEKEHVSVKIAIVKTGTAEQMQLQSGIVKLVKELGAATVGLRFAEFTEEELAQFAPEQEEEQSESLLSPNSKTTFLAVASGKGGVGKSTVSVNLAVALARLGKKVGIIDADIYGFSVPDMMGIEKRPIVRGDKIIPVERLGVKVISMGFFVEDNAPVIWRGPMLGKMLNHFFTEVEWGDLDYLVLDLPPGTGDVALDVHSMLPSCKEIIVTTPHPTAAFVAARAGAMALRTEHSILGVVENMAYFESKVTGEKEYVFGKGGGDKLATELQTNVLGRIPLQQPDWNKEDFAPSVYEDTHTTGIIYSKIAETVIDKTAVTQKLEHHHHHH”, the protein production result is “not failed”.

Consider “MVTLCQVFGVHRSSYRYWKNRPEKPDGRRAVLRSQVLELHGISHGSAGARSIATMATRRGYQMGRWLAGRLMKELGLVSCQQPTHRYKRGGHEHVAMPKWVILYCRRWMEAPMQSCENGELITRTRGTPQGGVISPLLANLFLHYAFDLWMEREYRGVPFERYADDIVVHCSRMSDATRLKNRLSERFSEVGLVLNAGKTNIAYIDTFKRRNVATSFTFLGYDFKVRTLKNFKGERYRKCMPGASNAAMRKITETIKKWRIHRSTAESLLDFARRYNTIVRGWIEYYGKFWSRNFNYRLWSAMQSRLLKWMQSKYRLSNRKAQRKLTLVRKEYPKLFVHWYLLRASNE”, for which the protein production result is “failed”.

On to “MVTNQKHLEDFGYLKMTQKEGTILPEEYVSIIQHPKGGPKSVTLRENKVSGLKENFIHYLTDTEPGSSGSPVFNDQWTLVALHHSGVPNPEIKDLEHHHHHH”, for which the protein production result is reported as “not failed”.

Regarding “MVTQKQRRLWAFLAALACVMWGISGLFAKSLFNISSDITPMWLSQIRMVTSGIILLIVAGILKQKPIATMKNKHDAWVIIAYGIFGLLPVQLFYFIVVQQANASIATILQFVGPFFVMGYLAFTHKQVMRRIDVIAAIFAFIGVVLLATHGRFNHLAITPSVLFWGLLSAVGVATNTLIPIGVLKRVSSLVVTGWGLLSAGICLMIVHPQMPHIPNTPHVWLDVLAVIVIGTLIPFQLMTNSLRFIKASTASLLDAFEPFSATLGSVLCFGLVMTPMDWIGSILVVLAAMALNISPKKKKGKLDGKSQD”, the protein production result was “failed”.

“MVTSSQVMLMPAHDSAKPTGFGIMVTSLDLLRDHQKVIHTLWFIDDVVARELGGFDGFCRRERVLLLFVDSTNTTLSFTRNDMTCVPRQGGADSDHWLFKRHLALLLPLSFAQVYEGFISFYEEEDKHISWDIKSCSSSSHQ”: the protein production result is recorded as “failed”.

On to “MVTTRKPLRAAIIGLGRLGERHARHLVNKIQGVKLVAACALDSNQLEWAKNELGVETTYTNYKDMIDTENIDAIFIVAPTPFHPEMTIYAMNAGLNVFCEKPLGLDFNEVDEMAKVIKSHPNQIFQSGFMRRYDDSYRYAKKIVDNGDIGKIIYMRGYGIDPISGMESFTKFATEADSGGIFVDMNIHDIDLIRWFTGQDPVQAYGLTSNIAAPQLADIGEFETGVAQLKMSDGVIATLIGGRHAAHGNQVELEVMGSNGWVRIGEHPDLNRVTVFNDQGVVRPSLQSFGERFDTAFTDEVQDFVNNVIVGKQPEVTVDDGIKALKIAKACQQSANIGKLVDIQL”, for which the protein production entry is “failed”.

For “MVVADGHDLQESPLRWIPFLAVFLYVYIEISIFIQVAHVLGVLMTLILVIFTSVIGMSLVRNQGFKNFLLMQQKMAAGESPAAEMIKSVSLIIAGLLLLLPGFFTDFLGLLLLLPPVQKHLTLKLLPHLRFSRMPGGGFSAGTGGGETFDGEYQRKDDDRDRIEHKDDRRD”, the protein production entry is “failed”.

For “MVVSVLMPTYNHERFIEQAILSFIQQQVDFDIELLIGDDCSSDNTSFIARIYAEKYPNKIHLFQYSVNRGLMHNYKYLLNQAKGKYIAILESDDIWLDPFKLHKQVEIIEKTPNCGLVFSNWIVIDADSKEVTRSQRTLKTIGYSDLLKSNMVAAVTVLFSRNMFDLYCDIDEYILRNFKTLDYPVWLSISAHSNIIYLDDYTAGYRCLSTSISNSNSYQRSMAFNQSIDAIVQYVVSKYGKGELTIKELENASKLRYLTQAFQFKKFSQAFSIAWTFHATNIKSFIIKVLPFIWLCKNRKLIGQRLK”, the protein production result is recorded as “failed”.

On to “MVVTCPKCGAKNRLGTPPPGQVPVCGACKTPLPWVVEADEKGFAQEVAGAPLTLVDFFAPWCGPCRLVSPILEELARDHAGRLKVVKVNVDEHPGLAARYGVRSVPTLVLFRRGAPVATWVGASPRRVLEERLRPYLEGR”, for which the protein production entry is listed as “not failed”.

As to “MVVVTGREPDSRRQDGAMSSSDAEDDFLEPATPTATQAGHALPLLPQEFPEVVPLNIGGAHFTTRLSTLRCYEDTMLAAMFSGRHYIPTDSEGRYFIDRDGTHFGDVLNFLRSGDLPPRERVRAVYKEAQYYAIGPLLEQLENMQPLKGEKVRQAFLGLMPYYKDHLERIVEIARLRAVQRKARFAKLKVCVFKEEMPITPYECPLLNSLRFERSESDGQLFEHHCEVDVSFGPWEAVADVYDLLHCLVTDLSAQGLTVDHQCIGVCDKHLVNHYYCKRPIYEFKITWW”, the protein production entry is reported as “failed”.

Regarding “MVWFLILQLIVLLILVAFSATLMAKGTRELERSFGKGIAGGLILGFINALPETIIVIQAVLNGFYDIALGSALGGNILLLTLGIGLISIFYYLKYKSNIITLDSDINIEYSSFLLAVIILGIAIVYGKLNYYIGLFLLSPYIYYIYRRYKNYRGILKNEKNKGNAIKGLAYVMIGGLPLIFISKYLISTISSIASVFNVQPLILAILITPIAAELEENLTAIKLISDSPSSATTALMNFIGSKLENMTLLLSIIGISQTVSLRPSLLYLLLILATSLLALGIIKDRNIKVKEGLSLFGIYAILIAILLRFSA”, the protein production result is on record as “failed”.

On to “MVWLAVFLAVLGAFFLAIGAQRQGSAVKADTGGLALSSNGFLRLLRNPRWMLGLLFLALGMVMNAVALVSAPLTVVQPIGAIALVITTVVNAKDQGLSINRATVVAISACVTGSALFVLLAVNVTQENHHVNTEDELTIVLLLALAVGIFGTLAVVFRHRMSAFVYILGAGVLFGFVAVLTRIIGKHLLDPNGLFLLNVQWYTLIAIVAAGGLGSWFVQSAYSGGPPDLVIAGLTVIDPMVGIAIGIVILGELRPDVHAVMAIAMAAAATLAIVGVIALSRHHPEVTKRKKDAKAAASRKA”, for which the protein production entry was “failed”.

On to “MVYLMLCLKIWRVVLKKNKTLVFISLFLLSVFLGGFYFYFDPNILYLLKGEKDFSKLIMGIDFYIDKKKFADAKKAMLFSSYYANTEFKWLALAKRAKLWALNTGDYHLMGEIVNLGVKVLPGNLKLRALEVYSKLKIGLLKDAYRIANEYLLNSEEYQGLYDEVFIKNLSSDNGILDFNKFIDKIYKEKDARIFEEIGLNLKNNAFLINAMLLYIEKKNIDSAKRILFRIKEDKSFLKELAYISYNLNDLDYTISNLKSIKNEEDPTLLFLLADAYFKKGDIKNAKNEYLKLYTRFPDYNVLVYLNLALIANSENDYKRAISYLNKANEVFKDNKIINYYLANIYFGIKNYFKANEIIANYKEDPLFFKLYFALNYANSKYEAKKSYLWRLFYKTEYNSSIAQFLAWNLLLYSDLKDLDLFFRIYNFSENKQDWYDFYKFYYYFLKRDFISSKKIIFDNKSQKYMFGIYYNLGVLSFSEKDYEEAERYFNKGISLLPSSFYDKDSTTPYERELVSKIYLKQGINYLYLGKMEKGKESILASYSFYETDEGRLYKNMIDTLRERNLNFD”, for which the protein production result is listed as “failed”.

Regarding “MVYWEYKINQTRRVMKNLKFQSVFDIIGPVMVGPSSSHTAGAVRIGKIVSAIFGDAPTEVEFQLFNSFAKTYRGHGTDVALVAGILGMETDDPDIPHALDIAHEKGIKVYWKINKDSKAPHPNTTRITLKNATKTISATGISIGGGNIQVTELNGF”, the protein production result was “not failed”.

In the case of “MWAFPERFEGRHVRLEPLALAHLPAFLRHYDPEVYRFLSRAPVAPTEEALRAHLEGLLGEPGRVNWAILFGKEVAGRISVIAPEPEHAKLELGTMLFKPFWGSPANKEAKYLLLRHAFEVLRAERVQFKVDLRNERSQRALEALGAVREGVLRKNRRLPDGAFRDDVVYSVLKEEWPGVKARLEARLYGASGN”, the protein production result is listed as “not failed”.

In the case of “MWARTAAWVFGLPETLREICYRRDNVKPVDELQKTIGHRFGDMELLLTAMTHSSWANEQAVPVEHNERLEFLGDAVLELCVSEELFRRFPSAREGDLTRMRSRLVSKPSLEGVARELRLDMSLRLGKGEESQGGRERGSLLSDALEAMLGAVFLDAGYIAAKGVVMRILGPHFPEALVPVRTKDYKSQLQELTQKLFRDRPVYTLLGSSGPEHDKQFDVRVVLPDGTVFEATGPSMKRAEQMAAARAVATLDK”, the protein production result is “failed”.

“MWIVLWPGLTGLPDSLVLLARVGGCSVLYDTGSGEPGSIVALAANLASAGVKPWSINVAIVSHAHVPSSGGARWLHDNHRVTIAARRPDSRWIEEGDPVKTAAVDYGLPTKPVPIGLELEREGRMPGECEGVEVLFTPGHTPGSVSVSLDTGDATVLAVSDALGRLKRDWGSSEREWMESLDKISSRDPDYLCTSVTCMDRRAAKAFLDEIREKGPVWDVENSSGDGPG”: the protein production result is on record as “failed”.

Take “MWKKKIVLSFLFYLISALGISLTIQAGVGVSSFNAFNVTFATLTHLKVGTVTTAINFAFLGTCWLLDQQRKIQDYLIILVALIGFGFVINFFLYQLFGSLVFQNYLVKIVLFILGTIIAGIGTGQVVALGVLQFPIEKFCTLISERTRYSFQFYRYLVDIFCVSLALGLSISYHLPIFVREGTVISLFLLSWVISWSRKRGQQRILRIQIKKLESE”: the protein production result is “failed”.
